# Biological target: recombinant microtubule-associated protein Tau (Homo sapiens (Human)) (UniProt P10636)
substance,measurement,value
purified active CDK5/p25 complex (enzyme),"in vitro phosphorylation, stoichiometry; MALDI-TOF MS of tryptic peptides (phosphates per Tau molecule)",0.5

# From patent publication US20050261475A1
